Experimental data published in patent publication US20230212237.

Experiments:
[1] = target: GST-Rheb wild type (recombinant, human Rheb)
GST-Rheb wild type (recombinant, human Rheb), sequence (chain, as listed by the source): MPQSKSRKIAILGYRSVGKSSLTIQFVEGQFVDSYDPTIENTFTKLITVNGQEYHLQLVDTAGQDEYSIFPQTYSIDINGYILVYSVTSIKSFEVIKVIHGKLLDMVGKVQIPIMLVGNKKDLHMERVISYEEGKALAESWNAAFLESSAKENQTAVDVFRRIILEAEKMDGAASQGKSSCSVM

B1: FLAG-TSC1 and FLAG-TSC2 (TSC complex) (protein)
chain 1: MAQQANVGELLAMLDSPMLGVRDDVTAVFKENLNSDRGPMLVNTLVDYYLETSSQPALHILTTLQEPHDKHLLDRINEYVGKAATRLSILSLLGHVIRLQPSWKHKLSQAPLLPSLLKCLKMDTDVVVLTTGVLVLITMLPMIPQSGKQHLLDFFDIFGRLSSWCLKKPGHVAEVYLVHLHASVYALFHRLYGMYPCNFVSFLRSHYSMKENLETFEEVVKPMMEHVRIHPELVTGSKDHELDPRRWKRLETHDVVIECAKISLDPTEASYEDGYSVSHQISARFPHRSADVTTSPYADTQNSYGCATSTPYSTSRLMLLNMPGQLPQTLSSPSTRLITEPPQATLWSPSMVCGMTTPPTSPGNVPPDLSHPYSKVFGTTAGGKGTPLGTPATSPPPAPLCHSDDYVHISLPQATVTPPRKEERMDSARPCLHRQHHLLNDRGSEEPPGSKGSVTLSDLPGFLGDLASEEDSIEKDKEEAAISRELSEITTAEAEPVVPRGGFDSPFYRDSLPGSQRKTHSAASSSQGASVNPEPLHSSLDKLGPDTPKQAFTPIDLPCGSADESPAGDRECQTSLETSIFTPSPCKIPPPTRVGFGSGQPPPYDHLFEVALPKTAHHFVIRKTEELLKKAKGNTEEDGVPSTSPMEVLDRLIQQGADAHSKELNKLPLPSKSVDWTHFGGSPPSDEIRTLRDQLLLLHNQLLYERFKRQQHALRNRRLLRKVIKAAALEEHNAAMKDQLKLQEKDIQMWKVSLQKEQARYNQLQEQRDTMVTKLHSQIRQLQHDREEFYNQSQELQTKLEDCRNMIAELRIELKKANNKVCHTELLLSQVSQKLSNSESVQQQMEFLNRQLLVLGEVNELYLEQLQNKHSDTTKEVEMMKAAYRKELEKNRSHVLQQTQRLDTSQKRILELESHLAKKDHLLLEQKKYLEDVKLQARGQLQAAESRYEAQKRITQVFELEILDLYGRLEKDGLLKKLEEEKAEAAEAAEERLDCCNDGCSDSMVGHNEEASGHNGETKTPRPSSARGSSGSRGGGGSSSSSSELSTPEKPPHQRAGPFSSRWETTMGEASASIPTTVGSLPSSKSFLGMKARELFRNKSESQCDEDGMTSSLSESLKTELGKDLGVEAKIPLNLDGPHPSPPTPDSVGQLHIMDYNETHHEHS
chain 2: not shown
**Q.** With B1 as the protein, how does the “GAP assay: hydrolysis of Rheb-bound [alpha-32P]GTP to GDP (thin-layer chromatography)” value (“GAP assay: hydrolysis of Rheb-bound” for short) (GST-Rheb G29S) read?
**A.** The value was “partial resistance to them was seen for Rheb mutants G29S and Q64L”.

**Q.** And the “GAP assay: hydrolysis of Rheb-bound” value (GST-Rheb Y35N)?
**A.** The value was “TSC1/TSC2 were completely unable to promote hydrolysis of GTP bound to the S21L, T23M, Y35N, E40K and G63A mutants”.

**Q.** What about the “GAP assay: hydrolysis of Rheb-bound” value (GST-Rheb S21L) of the same protein?
**A.** The value was “TSC1/TSC2 were completely unable to promote hydrolysis of GTP bound to the S21L, T23M, Y35N, E40K and G63A mutants”.

**Q.** What about the “GAP assay: hydrolysis of Rheb-bound” value (GST-Rheb T23M) of the same protein?
**A.** The value was “TSC1/TSC2 were completely unable to promote hydrolysis of GTP bound to the S21L, T23M, Y35N, E40K and G63A mutants”.

**Q.** What about the “GAP assay: hydrolysis of Rheb-bound” value (GST-Rheb G63A) of the same protein?
**A.** The value was “TSC1/TSC2 were completely unable to promote hydrolysis of GTP bound to the S21L, T23M, Y35N, E40K and G63A mutants”.

**Q.** And the “GAP assay: hydrolysis of Rheb-bound” value (GST-Rheb E40K)?
**A.** Its value is “TSC1/TSC2 were completely unable to promote hydrolysis of GTP bound to the S21L, T23M, Y35N, E40K and G63A mutants”.

**Q.** And the “GAP assay: hydrolysis of Rheb-bound” value (GST-Rheb Q64L)?
**A.** The value was “partial resistance to them was seen for Rheb mutants G29S and Q64L”.

**Q.** What about the “GAP assay: hydrolysis of Rheb-bound” value [1] of the same protein?
**A.** The value was “Incubation with FLAG-TSC1 and FLAG-TSC2 led to hydrolysis of Rheb-GTP into Rheb-GDP”.
